According to patent publication US20080318246A1, “Deeply quenched enzyme sensors” (The Albert Einstein College of Medicine of Yeshiva …, priority 2007, published 2008):

What follows are substances tested against cAMP-dependent protein kinase (PKA), murine catalytic subunit (murine) (UniProt P05132) (assay: cell-based or functional assay).

Row | Substance | IC50 of PKA activity (Deep Quench assay, P2/Ponceau S, 1 mM ATP) [µM] | IC50 of PKA activity (standard radioactive ATP method) [µM]
1 | PKI (14-22) peptide | 1.1 | 1.6

Each substance was assayed against 14-3-3τ (UniProt P27348) (assay: cell-based or functional assay).
14-3-3τ, sequence (P27348 whole entry): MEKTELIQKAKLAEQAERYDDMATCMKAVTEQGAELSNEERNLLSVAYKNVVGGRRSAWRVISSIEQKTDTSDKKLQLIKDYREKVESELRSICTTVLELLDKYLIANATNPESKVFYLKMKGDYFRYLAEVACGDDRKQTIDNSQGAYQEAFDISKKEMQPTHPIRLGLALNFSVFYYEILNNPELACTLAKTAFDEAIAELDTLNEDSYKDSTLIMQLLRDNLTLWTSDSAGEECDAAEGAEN

Row | Substance | % Fluorescence Enhancement on phosphorylation, no quenching dye [%] | PKA-induced fluorescence change; Alizarin Red 5x [fold] | PKA-induced fluorescence change; Alizarin Red 10x [fold] | PKA-induced fluorescence change; Alizarin Red 25x [fold] | PKA-induced fluorescence change; Alizarin Red 50x [fold] | PKA-induced fluorescence change; Aniline Blue WS 5x [fold] | PKA-induced fluorescence change; Aniline Blue WS 10x [fold] | PKA-induced fluorescence change; Aniline Blue WS 25x [fold] | PKA-induced fluorescence change; Aniline Blue WS 50x [fold] | PKA-induced fluorescence change; Chlorazol Black E 5x [fold]
2 | phosphorylated P5 peptide AcDap(Pyr)RTGRRFS(PO3 2-)YP-amide | 64 | 1.7 | 1.59 | 1.49 | 1.5 | 3.02 | 5.36 | 6.04 | 1.23 | 5.62
3 | P4, Ac-GRDap(Pyr)GRRFSYP-amide, serine-phosphorylated by PKA in the assay (peptide) | 40 | 1.36 | 1.33 | 1.23 | 1.07 | 2.34 | 4.82 | 5.58 | 1.4 | 4.01
4 | P2, Ac-GRTGRRDap(Pyr)SYP-amide, serine-phosphorylated by PKA in the assay (peptide) | 51 | 1.59 | 1.38 | 1.37 | 1.3 | 1.85 | 2.48 | 2.52 | 1.83 | 2.26
5 | P3, Ac-GRTDap(Pyr)RRFSYP-amide, serine-phosphorylated by PKA in the assay (peptide) | 19 | 1.28 | 1.21 | 1.17 | 1.05 | 1.5 | 2.17 | 3.79 | 0.99 | 1.79

Same assay, conditions: not given

Row | Substance | PKA-induced fluorescence change; Chlorazol Black E 10x [fold] | PKA-induced fluorescence change; Chlorazol Black E 25x [fold] | PKA-induced fluorescence change; Chlorazol Black E 50x [fold] | PKA-induced fluorescence change; Eriochrome Black T 5x [fold] | PKA-induced fluorescence change; Eriochrome Black T 10x [fold] | PKA-induced fluorescence change; Eriochrome Black T 25x [fold] | PKA-induced fluorescence change; Eriochrome Black T 50x [fold] | PKA-induced fluorescence change; Evans Blue 5x [fold] | PKA-induced fluorescence change; Evans Blue 10x [fold] | PKA-induced fluorescence change; Evans Blue 25x [fold]
6 | phosphorylated P5 peptide AcDap(Pyr)RTGRRFS(PO3 2-)YP-amide | 1.52 | 0.21 | 0.25 | 1.61 | 1.73 | 0.84 | 1.12 | 1.33 | 0.92 | 0.84
7 | P4, Ac-GRDap(Pyr)GRRFSYP-amide, serine-phosphorylated by PKA in the assay (peptide) | 0.93 | 0.55 | 0.87 | 1.32 | 1.12 | 0.59 | 0.59 | 0.98 | 0.91 | 0.89
8 | P2, Ac-GRTGRRDap(Pyr)SYP-amide, serine-phosphorylated by PKA in the assay (peptide) | 2.84 | 0.6 | 0.35 | 1.46 | 1.42 | 1.13 | 3.71 | 1.92 | 1.37 | 1.01
9 | P3, Ac-GRTDap(Pyr)RRFSYP-amide, serine-phosphorylated by PKA in the assay (peptide) | 0.71 | 0.92 | 0.25 | 1.1 | 1.02 | 0.58 | 0.31 | 1.1 | 1.06 | 1.06

Same assay, conditions: not given

Row | Substance | PKA-induced fluorescence change; Evans Blue 50x [fold] | PKA-induced fluorescence change; Ponceau S 5x [fold] | PKA-induced fluorescence change; Ponceau S 10x [fold] | PKA-induced fluorescence change; Ponceau S 25x [fold] | PKA-induced fluorescence change; Ponceau S 50x [fold] | PKA-induced fluorescence change; Reactive Blue 2 5x [fold] | PKA-induced fluorescence change; Reactive Blue 2 10x [fold] | PKA-induced fluorescence change; Reactive Blue 2 25x [fold] | PKA-induced fluorescence change; Reactive Blue 2 50x [fold] | PKA-induced fluorescence change; Rose Bengal 5x [fold]
10 | phosphorylated P5 peptide AcDap(Pyr)RTGRRFS(PO3 2-)YP-amide | 0.78 | 2.85 | 3.3 | 3.23 | 4.36 | 2.28 | 3.99 | 6.44 | 5.79 | 8.36
11 | P4, Ac-GRDap(Pyr)GRRFSYP-amide, serine-phosphorylated by PKA in the assay (peptide) | 0.91 | 2.26 | 2.63 | 2.88 | 2.69 | 2.16 | 2.66 | 3.55 | 4.27 | 6.52
12 | P2, Ac-GRTGRRDap(Pyr)SYP-amide, serine-phosphorylated by PKA in the assay (peptide) | 0.94 | 1.93 | 1.92 | 4.61 | 6.57 | 1.99 | 2.08 | 5.66 | 6.3 | 2.58
13 | P3, Ac-GRTDap(Pyr)RRFSYP-amide, serine-phosphorylated by PKA in the assay (peptide) | 0.99 | 1.81 | 2.26 | 2.75 | 2.88 | 1.48 | 2.29 | 3.56 | 1.68 | 2.7

Same assay, conditions: not given

Row | Substance | PKA-induced fluorescence change; Rose Bengal 10x [fold] | PKA-induced fluorescence change; Rose Bengal 25x [fold] | PKA-induced fluorescence change; Rose Bengal 50x [fold] | PKA-induced fluorescence change; Tartrazine 5x [fold] | PKA-induced fluorescence change; Tartrazine 10x [fold] | PKA-induced fluorescence change; Tartrazine 25x [fold] | PKA-induced fluorescence change; Tartrazine 50x [fold] | PKA-induced fluorescence change; Trypan Blue 5x [fold] | PKA-induced fluorescence change; Trypan Blue 10x [fold] | PKA-induced fluorescence change; Trypan Blue 25x [fold]
14 | phosphorylated P5 peptide AcDap(Pyr)RTGRRFS(PO3 2-)YP-amide | 3.45 | 1.02 | 0.95 | 1.43 | 1.52 | 1.79 | 2.05 | 6.21 | 2.72 | 3.61
15 | P4, Ac-GRDap(Pyr)GRRFSYP-amide, serine-phosphorylated by PKA in the assay (peptide) | 2.88 | 1.1 | 0.91 | 1.28 | 1.42 | 1.46 | 1.47 | 3.03 | 2.18 | 1.72
16 | P2, Ac-GRTGRRDap(Pyr)SYP-amide, serine-phosphorylated by PKA in the assay (peptide) | 2.87 | 1.58 | 0.72 | 1.41 | 1.61 | 1.82 | 2.51 | 2.2 | 2.81 | 5.11
17 | P3, Ac-GRTDap(Pyr)RRFSYP-amide, serine-phosphorylated by PKA in the assay (peptide) | 1.98 | 1.13 | 0.97 | 1.19 | 1.34 | 1.47 | 1.02 | 2.23 | 2.72 | 1.91

Same assay, conditions: not given

Row | Substance | PKA-induced fluorescence change; Trypan Blue 50x [fold] | Phosphorylation-induced fluorescence fold-change; P5/Rose Bengal (1:5), plate reader - bottom read [fold] | Phosphorylation-induced fluorescence fold-change; P5/Rose Bengal (1:5), plate reader - top read [fold] | Phosphorylation-induced fluorescence fold-change; P5/Rose Bengal (1:5), spectrofluorimeter [fold] | Phosphorylation-induced fluorescence fold-change; P2/Ponceau S (1:50), plate reader - bottom read [fold] | Phosphorylation-induced fluorescence fold-change; P2/Ponceau S (1:50), plate reader - top read [fold] | Phosphorylation-induced fluorescence fold-change; P2/Ponceau S (1:50), spectrofluorimeter [fold]
18 | phosphorylated P5 peptide AcDap(Pyr)RTGRRFS(PO3 2-)YP-amide | 3.48 | 8 | 30 | 64 |  |  | 
19 | P4, Ac-GRDap(Pyr)GRRFSYP-amide, serine-phosphorylated by PKA in the assay (peptide) | 2.76 |  |  |  |  |  | 
20 | P2, Ac-GRTGRRDap(Pyr)SYP-amide, serine-phosphorylated by PKA in the assay (peptide) | 6.03 |  |  |  | 7 | 15 | 21
21 | P3, Ac-GRTDap(Pyr)RRFSYP-amide, serine-phosphorylated by PKA in the assay (peptide) | 1.6 |  |  |  |  |  | 
